Article PMC6684798, “Structural basis for the target specificity of actin histidine methyltransferase SETD3” (Nature Communications, 2019)
Where two headings read alike, the source gives them in different places. Values belong to the compound of their own block, whether it stands above or below them.

Legend:
[1] = target: Recombinant human SETD3 (pXC2003), wild type (human) (UniProt Q86TU7)
[2] = target: Recombinant human SETD3 (pXC2003), wild type (human) (UniProt Q86TU7); remark: listed apart in the source
SETD3 = target: T1, SETD3 (Homo sapiens, UniProt Q86TU7); experiment: Ki measurement of sinefungin against SAM for SETD3 (Supplementary Fig. 2a, b); format: biochemical
T1 construct: GST (cleaved yes); made in house; host or cells: Escherichia coli BL21(DE3) CodonPlus
T1 sequence (Q86TU7 1-594): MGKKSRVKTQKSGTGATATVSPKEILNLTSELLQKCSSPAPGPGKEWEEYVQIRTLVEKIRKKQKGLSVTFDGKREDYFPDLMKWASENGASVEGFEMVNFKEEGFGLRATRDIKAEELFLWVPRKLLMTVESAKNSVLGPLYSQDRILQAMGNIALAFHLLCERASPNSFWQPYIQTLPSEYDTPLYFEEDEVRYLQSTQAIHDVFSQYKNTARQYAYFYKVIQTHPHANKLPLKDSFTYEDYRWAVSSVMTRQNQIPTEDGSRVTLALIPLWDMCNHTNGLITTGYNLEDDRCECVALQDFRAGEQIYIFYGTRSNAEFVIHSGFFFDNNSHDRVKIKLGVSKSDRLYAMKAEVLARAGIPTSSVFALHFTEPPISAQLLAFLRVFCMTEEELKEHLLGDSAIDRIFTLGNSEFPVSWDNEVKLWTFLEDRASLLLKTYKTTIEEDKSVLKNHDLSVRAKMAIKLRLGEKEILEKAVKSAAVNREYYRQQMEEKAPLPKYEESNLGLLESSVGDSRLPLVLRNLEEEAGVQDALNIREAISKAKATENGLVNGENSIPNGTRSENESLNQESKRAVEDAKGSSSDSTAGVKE
Protocol: Recombinant human SETD3 (pXC2003) was expressed as a GST-fusion[22] in Escherichia coli BL21(DE3) CodonPlus^TM cells (Stratagene). The SETD3 mutants at residue 255 (N255A; pXC2093 and N255V; pXC2094) were generated with Q5 Site-Directed Mutagenesis Kit (New England Biolabs), confirmed by sequencing and the same protocol for expression and purification were followed. Briefly, the purification was conducted in a BIO-RAD NGC^TM system using a three-column chromatography of glutathione-sepharose, HiTrap Q-HP and Superdex 200. The GST tag was removed by PreScisson Protease (purified in-house). The purified SETD3 proteins at a concentration ~25–35 mg/ml were kept at −80 °C in storage buffer for future use [20 mM Tris (pH 8.0), 200 mM NaCl, 5% glycerol, and 0.5 mM tris (2-carboxyethyl) phosphine (TCEP)].
For Ki measurement of sinefungin (Supplementary Fig. 2a, b), a reaction mixture contained 20 mM Tris/HCl (pH 8.0), 50 mM NaCl, 0.1 mg/ml BSA, 1 mM DTT, 0.18 µM SETD3, 40 µM H73 (residues 66–80) peptide and first incubated with varied concentration of sinefungin (0–100 µM) for 30 min, reactions were then started by addition of 2–8 µM SAM. After 30 min at room temperature, the reactions were terminated by the addition of TFA to 0.1% (v/v). […]

- Km of steady-state methylation kinetics (MTase-Glo), pH 10.5, 37 °C [1]: 5.2 μM
Compound: actin H73K peptide (residues 66-88) (from UniProt P60709 66-88)

- Km of steady-state methylation kinetics (MTase-Glo), pH 10.5, 37 °C [2]: 430 μM
Compound: actin H73K peptide (residues 66-80) (from UniProt P60709 66-80)

- mode of inhibition of SETD3 (SETD3; Lineweaver-Burk, H73(66–80) 40 µM, 0–100 µM sinefungin, 2–8 µM SAM, pH 8.0): SAM-competitive inhibitor
Compound: Nc1ncnc2c1ncn2[C@@H]1O[C@H](C[C@@H](N)CC[C@H](N)C(=O)O)[C@@H](O)[C@H]1O [sinefungin, adenosyl ornithine]
- support of methyl transfer / inhibition (SETD3; Supplementary Fig. 2): does not support the methyl transfer, and thus functions as an inhibitor

- Km of steady-state methylation kinetics (MTase-Glo), pH 8.0, room temperature [2]: 21 μM
Compound: actin H73 peptide (residues 66-80) (from UniProt P60709 66-80)
